The values below come from PMC8752837, “Structural basis of BAK activation in mitochondrial apoptosis initiation” (Nature Communications, 2022).

In the test the target is T1, GST-BAK (human).
T1 chain: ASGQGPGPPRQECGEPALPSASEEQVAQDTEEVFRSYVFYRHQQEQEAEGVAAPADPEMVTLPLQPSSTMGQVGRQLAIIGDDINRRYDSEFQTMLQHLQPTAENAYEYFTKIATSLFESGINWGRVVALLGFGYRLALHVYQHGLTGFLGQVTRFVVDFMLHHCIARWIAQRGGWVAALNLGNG
Put plainly: fluorescence polarisation; competitive: displacement of 10 nM BID BH3 SAHB-F from 1 µM GST-BAK by peptides at 500-0.2 µM; 50 mM Tris-HCl pH 7.5, 50 mM KCl, 0.1 mg/mL BSA, 2 mM DTT, 0.005% Tween-20; 60 min at RT. The conditions noted are these: both partners purified.

For the molecule Ac-EDWIRNIARHLAQVGDSMDRSI-NH2 [W(0') BID BH3 peptide], the IC50 was determined as 27.4 ± 16.4 µM.
